Measurements as given in the DeepSol protein solubility set.

Assay: soluble on expression in E. coli; label from the status in PepcDB or PDB records

Q: Which “soluble on expression in E. coli” value does the source give for “MSLKISVIIPIYNAENYIEKAFSSLKNQTLAQNEFEILCIDDKSTDNSLGKLKQLSKIHKNMRIINLHKNSGGPMIPRNKGIKEAKGKYIIFLDNDDYLGEEALERLFIQAEKNQSEVIFGKYVGINGRGVPQSQFKKGNRNEADILADNLVYTLAPHKMFQTAFLKTKKIYFDPNILIGEDQYFVMKAYVNAKVITVLADYDYYYVVSRGDENLSIKESKMDPREICKVVPAVVKEIEASPLHPTYKKTLIRAYIQRYFNDYITGNYNLDYKNMSERQKTFVQVMKDTIVCHLDEKMKNELPTKTRFMIDIIAENNPEKLIDVRMQMENFSKNQVVKVENGYIKGRFRKMRPQLAYDDVYDINHLNSSKVQLHSVTLQNNNYLLDISLEQSLLTRFQTALRLCLKERDGNLEIWISPLKMLSTERGIYAVDSTLFNHTCIWDLFIESEINGFKNRKRVGKDRDFEEIVSSNNTPLLIQNNSYQIKAYFTTPFSNLSFQIISEEGHHHHHH” here?
A: Its value is “soluble”.

Q: With “MTGSTETRQKEVKEPQVDVSDDSDNEAVEQELTEEQRRVAEAAGLGDHIDKQAKQSRSEKKARKLFSKLGLKQVTGVSRVCIRKSKNILFVINKPDVFKSPGSDTYIIFGEAKIEDLTQHAQMSAIENLKPTREAPQLKTVEEDENEDVEEDSTGIEEKDIELVISQANTTRNKAIRALKEADNDIVNAIMSLTM” as the sequence, how does the “soluble on expression in E. coli” value read?
A: Its value is “soluble”.

Q: For “MGSDKIHHHHHHMLIFQCHGDRCLSSNLQEHFTDLKKLVNGKSLLMGEKNVQKRLIRLGQILRVFLDKDRVSSIWLSRNFQITPRTIQRDLAALKESGFPIHEIQKGVYRLGKDLIKNLEVFDETELALVITLRNVVGQLGRPFQKAADGLFNSLYDAASSMPVYVRMDESIPLDSSLLNRIVKSIRLKKIAGFYYKSGKPHQVNMEPYRVVHFGGFWYLVGKDTGDSVIKRYALDRISDFKMARTPFRKIPENLDSAIQGSANIWFSTDQNLVVKISVDASSSGYFKRRKVFPTQEITEEREDGSLIVTFRVGRYEAIQDILKSWLPHITILEPAEFRDAFLADMKKWVQRQEQVGS”, which “soluble on expression in E. coli” value is on record?
A: Its value is “not soluble”.

Q: Which “soluble on expression in E. coli” value does the source give for “MSEALETGDPSPPPPIVSENGKTYYYLNSQESQAPNTPSPQEVPPKKMTNLFESGPLVYEDVAADIEAVTERASRRHYENKMVVKNSREMFDNVNILPDGRYYCCLCNRPYKTHATLTAHLRGYHLRNESSCDEPGCNFLSFTDQEKKRHRRTHDKKKKERNSQESMVIHEKIQKAVRRLDYPGEDELRDHLNGSTEVQGTIRTMTKKGKIRYACLKCPHSVFNAYHAARHVEMHNDFPKNCFYCGEIRKGTVDLQVHYMRVHKHEGIRTFKCSVCHLRFTTTILFRDHVECENGCQNPEIRQDIYYGELPEGTIVDDLTQDRLQNFRKRQEIWKTMGQMVEEHRTDVHEEIVGESSVQAGDTTVFDGSRAFIQTPFGLKTALEVKNTSRFCPRSGKRTSDDDLMITNKKRERLEMAPNLHFHQDIIHRLPTSTTTQRQNNAFQNEYLRPPVSYGYDPLIGRYPDFQLMSQSSLPSSSASSSSYDPFATAVYQDSDRNPMQPNDQHICDMNNVGAYETANFGLDNSSDLVVNEATIASNLMVNEVEDEVFEELNKLDFVMPADDGNDNDDDLEEVFNFGNVA” here?
A: Its value is “not soluble”.

Q: Which “soluble on expression in E. coli” value does the source give for “SNATKTIHNARYQALLDLLLEARSAAGITQKELAARLGRPQSFVSKTENAERRLDVIEFMDFCRGIGTDPYALLSKLEAMTPS” here?
A: Its value is “soluble”.

Q: Which “soluble on expression in E. coli” value does the source give for “MTSEQNIQTFRDFLTQYNLVAEQCFNSCVNEFGSRTVSGKEESCANNCLDKFLKMTQRVSQRFQEHQLLNAQANGAAIKVENGGKINKIQ” here?
A: Its value is “not soluble”.

Q: For “MAKEINLTGEEVVALAAKYMNETDAAFVKKALDYATAAHFYQVRKSGEPYIVHPIQVAGILADLHLDAVTVACGFLHDVVEDTDITLDNIEFDFGKDVRDIVDGVTKLGKVEYKSHEEQLAENHRKMLMAMSKDIRVILVKLADRLHNMRTLKHLRKDKQERISRETMEIYAPLAHRLGISRIKWELEDLAFRYLNETEFYKISHMMNEKRREREALVDDIVTKIKSYTTEQGLFGDVYGRPKHIYSIYRKMRDKKKRFDQIFDLIAIRCVMETQSDVYAMVGYIHELWRPMPGRFKDYIAAPKANGYQSIHTTVYGPKGPIEIQIRTKEMHQVAEYGVAAHWAYKKGVRGKVNQAEQKVGMNWIKELVELQDASNGDAVDFVDSLEHHHHHH”, which “soluble on expression in E. coli” value is on record?
A: Its value is “soluble”.

Q: For “MWELAEVQEPEAWNRLVSGFAITSPLQSWGWGEVKRTTGWEPRRFLLLGGEGPVAAAQVLLKAAPGGLRLAYAPRGPALHRLEDLPEVARALGRALRATHLVLEPEAGLPAHLPAPRFPGLLLEEPIQPAHSLWLDLTQGEEALLKGMKEMHRRNARLALKRVALSVEGEEAFAEFYRLFTETNRRARLLQHDEAYYRAVLKEMNQPLGEAFLALARKDGEALAAGLFVAFAGKVAYLYGGSTRKHPEAKAPMGMHLAAIRHGMARGYRVYDLWGIPKNPRGSHAEGIHRFKEGFGGQRVQFPAYVLPLSPLYRPLGLLLRLRKTWVNLRVRGNPRDVLG”, which “soluble on expression in E. coli” value is on record?
A: Its value is “soluble”.

Q: For “MTTPSMEMYIEQIYMLIEEKGYARVSDIAEALAVHPSSVTKMVQKLDKDEYLIYEKYRGLVLTSKGKKIGKRLVYRHELLEQFLRIIGVDEEKIYNDVEGIEHHLSWNSIDRIGDLVQYFEEDDARKKDLKSIQKKTEHHNQ”, which “soluble on expression in E. coli” value is on record?
A: The value was “soluble”.

Q: Which “soluble on expression in E. coli” value does the source give for “MSLAEFIYTMKKVRKAHGDKVILDDVTLSFYPGAKIGVVGPNGAGKSSVLRIMAGLDKPNNGDAFLATGATVGILQQEPPLNEDKTVRGNVEEGMGDIKIKLDRFNEVAELMATDYTDELMEEMGRLQEELDHADAWDLDAQLEQAMDALRCPPADEPVTNLSGGERRRVALCKLLLSKPDLLLLDEPTNHLDAESVQWLEQHLASYPGAILAVTHDRYFLDNVAEWILELDRGRAYPYEGNYSTYLEKKAERLAVQGRKDAKLQKRLTEELAWVRSGAKARQAKSKARLQRYEEMAAEAEKTRKLDFEEIQIPVGPRLGNVVVEVDHLDKGYDGRALIKDLSFSLPRNGIVGVIGPNGVGKTTLFKTIVGLETPDSGSVKVGETVKLSYVDQARAGIDPRKTVWEVVSDGLDYIQVGQTEVPSRAYVSAFGFKGPDQQKPAGVLSGGERNRLNLALTLKQGGNLILLDEPTNDLDVETLGSLENALLNFPGCAVVISHDRWFLDRTCTHILAWEGDDDNEAKWFWFEGNFGAYEENKVERLGVDAARPHRVTHRKLTRGEGHHHHHH” here?
A: The value was “soluble”.

Q: For “MSLIERVRTDLYRIPLPTRLTDSTHGAMMDFELITVRIEDSDGATGLGYTYTVNHGGAAVATMVDKDLRGCLLGADAEQIEKIWQSMWWRLHYAGRGGHATSAISAVDIALWDLKGIRARTPLWKLFGGYDPVVPVYAGGIDLELPVADLKTQADRFLAGGFRAIKMKVGRPDLKEDVDRVSALREHLGDSFPLMVDANMKWTVDGAIRAARALAPFDLHWIEEPTIPDDLVGNARIVRESGHTIAGGENLHTLYDFHNAVRAGSLTLPEPDVSNIGGYTTFRKVAALAEANNMLLTSHGVHDLTVHALASVPHRTYMEAHGFGLHAYMAEPMAVTDGCVSAPDRPGHGVVLDFERLGRLAVGEGHHHHHH”, which “soluble on expression in E. coli” value is on record?
A: The value was “soluble”.

Q: Which “soluble on expression in E. coli” value does the source give for “MAYFTAKRASSMGASTVPSGNDHLLEALTLCDCILSRYKRCGVQLNDAEAAAFANLQQRISSISGHAADAACPAGATRKQSQELGLHEYAQLAQRCLIFQNPLAQIVATINEEFSKLVSCSVRTHYANTNDAVLCDPVHDTVATIDTSTPIGRCAKTKTTVTISDTVYIPLCYNSHVVGCLEVESTAIDTSTPFFGYLLQVAALTLQNATSIDTLRWETRKAEAMVGMATRLARDTLEESVLVQSIINTAKTLTESDRCSIFLVKADGSLEAHFEDGNVVVLPAGTGIAGHVAESGAVVNIPNAYEDDRFHRSVDKVTGYHTRTILCLPIAFEGTIVAVAQLINKLDMVTQSGQRLPRVFGRRDEELFETFSMFAAASLRNCRINETLLKEKKKSDAILDVVALLSNTDIRDVDSIVRHVLHGAKKLLNADRSSMFLLDKERNELYSKMADSANEIRFPCGQGIAGTVAESGVGENIMDAYADSRFNSAVDRQLGYRTQSILCEPITLNGEVLAVVQLVNKLGDDGSVTCFTPTDQETFKVFSLFAGISINNSHLLEFAVNAGREAMTLNLQRNSITAQRAPKSVKVIAVTPEEREAVMSIDFGGAYDFTSPGFNLFEVREKYSEPMDAAAGVVYNLLWNSGLPEKFGCREQTLLNFILQCRRRYRRVPYHNFYHVVDVCQTLHTYLYTGKASELLTELECYVLLVTALVHDLDHMGVNNSFYLKTDSPLGILSSASGNNSVLEVHHCSLAIEILSDPAADVFEGLSGQDVAYAYRALIDCVLATDMARHGDLSRVFDDMAKAGYDSNDQESRRLVMETLIKAGDVSNVTKPFETSRMWAMAVTEEFYRQGDMEKEKGVEVLPMFDRSKNNELARGQIGFIDFVAGKFFRDIVGNLFHGMQWCVDTVNSNRAKWQEILDGRRDSIRPSIV” here?
A: Its value is “not soluble”.

Q: With “PGRPTMMISTTAMNTALLQWHPPKELPGELLGYRLQYCRADEARPNTIDFGKDDQHFTVTGLHKGTTYIFRLAAKNRAGLGEEFEKEIRTPEDL” as the sequence, how does the “soluble on expression in E. coli” value read?
A: The value was “soluble”.

Q: For “MNKYFYDGTPEGLVSAIGAILESGDDPEQTVLSIRQDTLFEEGLFLRTDSAVAEALFQRLRERAPDAVQTLWYFTMTEVDGLATSLLRYIALAFEHGDQVNGYLTHPDVKAVVATARKVGRELHRMKGLLRFEQLRDGTWLARMEPDHNVIQPLARHFSRRLRTQEWFIYDARRHSAAHWDGHALSFGTLERFSRPELSPEERVMQQLWQTFFKTIAIPERKNPRLQQSNMPAKYWKYLTEKQGE”, which “soluble on expression in E. coli” value is on record?
A: Its value is “not soluble”.

Q: Which “soluble on expression in E. coli” value does the source give for “MELFTEAWAQAYCRKLNESEAYRKAASTWEGSLALAVRPDPKAGFPKGVAVVLDLWHGACRGAKAVEGEAEADFVIEADLATWQEVLEGRLEPLSALMRGLLELKKGTIAALAPYAQAAQELVKVAREVA” here?
A: Its value is “soluble”.

Q: With “MNEYAPLRLHVPEPTGRPGCQTDFSYLRLNDAGQARKPPVDVDAADTADLSYSLVRVLDEQGDAQGPWAEDIDPQILRQGMRAMLKTRIFDSRMVVAQRQKKMSFYMQSLGEEAIGSGQALALNRTDMCFPTYRQQSILMARDVSLVEMICQLLSNERDPLKGRQLPIMYSVREAGFFTISGNLATQFVQAVGWAMASAIKGDTKIASAWIGDGATAESDFHTALTFAHVYRAPVILNVVNNQWAISTFQAIAGGESTTFAGRGVGCGIASLRVDGNDFVAVYAASRWAAERARRGLGPSLIEWVTYRAGPHSTSDDPSKYRPADDWSHFPLGDPIARLKQHLIKIGHWSEEEHQATTAEFEAAVIAAQKEAEQYGTLANGHIPSAASMFEDVYKEMPDHLRRQRQELGV” as the sequence, how does the “soluble on expression in E. coli” value read?
A: Its value is “soluble”.

Q: With “MGSEILVGIGEFRVAKGAVLKTIGLGSCVGIALYDPKLRLGGLAHVMLPQSGNGTKRSAKYADHAVEMMTEAMERLGSDRKRIVAKMAGGAQIFKHMTMDMLRIGDRNAEAIRTILRDYGIRIVSEDLGGDEGRTVYFFTNDGRMLVKYSRGGELWI” as the sequence, how does the “soluble on expression in E. coli” value read?
A: Its value is “soluble”.

Q: Which “soluble on expression in E. coli” value does the source give for “MGSDKIHHHHHHMNILFINSIGRNKFGGGEKWMVNAAKGLTDRGHNVVLASKRNSRLLDYAAGSGVRTEVMEIRGDFSPLATLKIAAWMKRHQTDILICNLNKDVRVAGLAARLVGRPVVLARHGMLLCSKKWKHKLSLTRLTDGIVTNSRTIREAYAGYGWFSENFVKVIYNGLTIPAEVTAFDFASRYPGKKIIYSAGRLSKQKGFEYLIDAAAMLKRKRDDLLFAISGEGKLEIELKNRVAALGLKGSFVFLGFTPDIYPFLKGCDLFVLASLFEGMPNVVMEAMAMQKPVIATDVNGARELMGASPESLVCDTGLIIPPKNPAAIAEAIEQIIDNPALLEAYGKAGHQRVETHFTVPIMIDNLEKHLQSKLAEKAGRC” here?
A: The value was “not soluble”.
